Results as given in PMC9638900.
Substitutions are numbered along the chain they refer to.

Columns and labels:
[1] = target: T1, PLE2 IntS12A (Vibrio cholerae PLE2 (satellite), UniProt M1T311 1-630, S12A); assay: EMSA
T1 sequence: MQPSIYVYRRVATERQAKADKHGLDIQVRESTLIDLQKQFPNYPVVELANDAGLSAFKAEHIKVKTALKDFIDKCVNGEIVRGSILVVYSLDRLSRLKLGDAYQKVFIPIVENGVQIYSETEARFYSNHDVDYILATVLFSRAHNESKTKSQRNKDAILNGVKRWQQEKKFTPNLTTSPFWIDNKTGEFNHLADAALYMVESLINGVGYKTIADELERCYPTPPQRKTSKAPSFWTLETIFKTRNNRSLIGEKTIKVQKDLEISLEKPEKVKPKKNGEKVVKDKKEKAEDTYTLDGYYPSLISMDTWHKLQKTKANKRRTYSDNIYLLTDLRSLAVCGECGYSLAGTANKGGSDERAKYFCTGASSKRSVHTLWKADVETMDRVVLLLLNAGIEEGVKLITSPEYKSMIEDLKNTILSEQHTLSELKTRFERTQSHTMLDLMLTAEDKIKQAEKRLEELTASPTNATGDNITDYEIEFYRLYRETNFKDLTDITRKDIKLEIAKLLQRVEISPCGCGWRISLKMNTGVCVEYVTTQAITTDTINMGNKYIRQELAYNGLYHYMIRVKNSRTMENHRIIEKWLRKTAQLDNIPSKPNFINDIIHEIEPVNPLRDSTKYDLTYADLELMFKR

[2] = target: T2, PLE2 Int (large serine recombinase) (Vibrio cholerae PLE2 (satellite), UniProt M1T311 1-630); assay: EMSA
T2 sequence: T1 sequence with A12S

B1: PLE2 attP EMSA probe (MN262/MN263) (dsDNA)
DNA 1: GATAGGTCATTTTATACTTCTGACAAAGTTACATATGACTTGCATTAGTG
DNA 2: CACTAATGCAAGTCATATGTAACTTTGTCAGAAGTATAAAATGACCTATC
Question: Does B1 bind [1]?
Answer: binds

Question: Does B1 bind [2]?
Answer: binds
